From US20250320461A1, “GENETICALLY MODIFIED HUMAN STEM CELL EXPRESSING A MUTANT HUMAN CYTOCHROME P450 2B6 PROTEIN AND ITS USE THEREOF IN THE TREATMENT OF CANCER” (ASSISTANCE PUBLIQUE-HOPITAUX DE PARIS, priority 2019, published 2025)

Test: affinity of cytochrome P450 2B6 protein for CPA
Type: biochemical, human
Description: In one particularly advantageous embodiment, said variants and fragments have an affinity for CPA the same as, substantially the same as, or greater than, that of the mutant human cytochrome P450 2B6 protein (CYP2B6*) of SEQ ID No 1.

B1: CYP2B6*: mutant human cytochrome P450 2B6 protein of SEQ ID No. 1 (substitutions I114V, L199M, V477W) (protein, listed as Homo sapiens)
chain: MELSVLLFLALLTGLLLLLVQRHPNTHDRLPPGPRPLPLLGNLLQMDRRGLLKSFLRFREKYGDVFTVHLGPRPVVMLCGVEAIREALVDKAEAFSGRGKIAMVDPFFRGYGVVFANGNRWKVLRRFSVTTMRDFGMGKRSVEERIQEEAQCLIEELRKSKGALMDPTFLFQSITANIICSIVFGKRFHYQDQEFLKMMNLFYQTFSLISSVFGQLFELFSGFLKYFPGAHRQVYKNLQEINAYIGHSVEKHRETLDPSAPKDLIDTYLLHMEKEKSNAHSEFSHQNLNLNTLSLFFAGTETTSTTLRYGFLLMLKYPHVAERVYREIEQVIGPHRPPELHDRAKMPYTEAVIYEIQRFSDLLPMGVPHIVTQHTSFRGYIIPKDTEVFLILSTALHDPHYFEKPDAFNPDHFLDANGALKKTEAFIPFSLGKRICLGEGIARAELFLFFTTILQNFSMASPVAPEDIDLTPQECGWGKIPPTYQIRFLPR
For B1, the Vmax (compared with CYP2B6 WT) was “same” and the “affinity for CPA relative to the wild-type protein (CYP2B6 WT)” value (vs CYP2B6 WT) was “more than 8 times”.
